According to the supplement of paper PMC10126150:
± gives the standard deviation of the averaged measurements.

Test system: ATP
Experiment: switch fluorescence ratio, 500 uM ATP over buffer (Cy3 cluster intensity, sum of 5 cycles each) (fold (ratio)); higher = stronger signal-on switching upon ATP binding; sequences stand for … in TCGTCGGCAGCGTCAGATGTGTATAAGAGACAGTTTTTTTTTTTTTTTTTTTTTTTTT…TC
Conditions: aptamer strand: ATP DNA aptamer (quencher-CACCTGGGGGAGTATTGCGGAGGAAGG + anchor), 100 nM annealed; ATP concentration: 500 uM
In short: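 For every switch-domain sequence, the fluorescence ratio is the mean of per-cluster values, each being summed target-cycle Cy3 intensity over summed buffer-cycle Cy3 intensity. Clusters outside 100-1000 RFU were excluded. On a modified Illumina MiSeq flow-cell, the Cy3-labelled switching-strand clusters were annealed to 100 nM quencher-labelled ATP aptamer, imaged in selection buffer and then after 15 min with 500 uM ATP at 22 °C. Five such cycles were run, with NaOH stripping and re-annealing between them.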
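Also: ATP exposure 15 min at 22 °C before imaging.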

AAGGGCGTCA
switch fluorescence ratio: 1.007 ± 0.0022

AAGGGCTTCA
switch fluorescence ratio: 1.031 ± 0.0074

AAGGGGAAGT
switch fluorescence ratio: 0.987 ± 0.038

AAGGGGACAC
switch fluorescence ratio: 1.02 ± 0.014

AAGGGGAGTT
switch fluorescence ratio: 0.998 ± 0.028

AAGGGGCGAT
switch fluorescence ratio: 0.98751 ± 0.00098

AAGGGGCTTT
switch fluorescence ratio: 1.01 ± 0.025

AAGGGGGACT
switch fluorescence ratio: 1.04 ± 0.039

AAGGGGGCTA
switch fluorescence ratio: 0.974 ± 0.027

AAGGGGGTGT
switch fluorescence ratio: 0.965 ± 0.026

AAGGGGTAGG
switch fluorescence ratio: 0.986 ± 0.036

AAGGGGTAGT
switch fluorescence ratio: 0.997 ± 0.025

AAGGGGTCGT
switch fluorescence ratio: 1 ± 0.025

AAGGGGTGAA
switch fluorescence ratio: 0.989 ± 0.017

AAGGGGTGGG
switch fluorescence ratio: 1.02 ± 0.032

AAGGGGTGTG
switch fluorescence ratio: 0.998 ± 0.013

AAGGGTAAGC
switch fluorescence ratio: 0.981 ± 0.029

AAGGGTATGC
switch fluorescence ratio: 1 ± 0.035

AAGGGTCGAT
switch fluorescence ratio: 0.968 ± 0.016

AAGGGTTAGG
switch fluorescence ratio: 1.03 ± 0.023

AAGGTAATTT
switch fluorescence ratio: 1.01 ± 0.03

AAGGTACAAG
switch fluorescence ratio: 1.06 ± 0.047

AAGGTAGAAA
switch fluorescence ratio: 1.03 ± 0.016

AAGGTAGAAT
switch fluorescence ratio: 0.986 ± 0.013

AAGGTAGGGG
switch fluorescence ratio: 0.986 ± 0.018

AAGGTATTAG
switch fluorescence ratio: 0.9926 ± 0.0055

AAGGTCATTA
switch fluorescence ratio: 0.97235 ± 0.00041

AAGGTCCTCT
switch fluorescence ratio: 1 ± 0.004

AAGGTGAAGG
switch fluorescence ratio: 1.02 ± 0.035

AAGGTGAGGT
switch fluorescence ratio: 1.038 ± 0.006

AAGGTGTTGT
switch fluorescence ratio: 1.04 ± 0.066

AAGGTTCGAA
switch fluorescence ratio: 1.023 ± 0.0033

AAGGTTGAAC
switch fluorescence ratio: 0.979 ± 0.011

AAGGTTGACC
switch fluorescence ratio: 1.01 ± 0.021

AAGGTTGGGT
switch fluorescence ratio: 0.984 ± 0.031

AAGGTTGGTG
switch fluorescence ratio: 1 ± 0.034

AAGGTTTGCC
switch fluorescence ratio: 0.965 ± 0.028

AAGTAAGCAG
switch fluorescence ratio: 0.9636 ± 0.0011

AAGTAATGCG
switch fluorescence ratio: 1.04 ± 0.034

AAGTAATTGT
switch fluorescence ratio: 1.01 ± 0.015

AAGTACAAGG
switch fluorescence ratio: 1.16 ± 0.1

AAGTACGTTA
switch fluorescence ratio: 1.25 ± 0.029

AAGTAGAATT
switch fluorescence ratio: 1.015 ± 0.0045

AAGTAGAGTG
switch fluorescence ratio: 0.9834 ± 0.0013

AAGTAGGAAA
switch fluorescence ratio: 0.999 ± 0.013

AAGTAGTTCG
switch fluorescence ratio: 0.9823 ± 0.0037

AAGTAGTTTC
switch fluorescence ratio: 1.01 ± 0.018

AAGTATAATG
switch fluorescence ratio: 1.02 ± 0.054

AAGTATACTT
switch fluorescence ratio: 0.986 ± 0.0049

AAGTATAGGT
switch fluorescence ratio: 1.03 ± 0.017

AAGTATTAGA
switch fluorescence ratio: 0.964 ± 0.011

AAGTCATTTA
switch fluorescence ratio: 0.9881 ± 0.0096

AAGTCCCCGG
switch fluorescence ratio: 1.18 ± 0.015

AAGTCCTGGA
switch fluorescence ratio: 1.07 ± 0.13

AAGTCCTTCT
switch fluorescence ratio: 1.07 ± 0.036

AAGTCGCATT
switch fluorescence ratio: 1.03 ± 0.014

AAGTCGGTCT
switch fluorescence ratio: 1.05 ± 0.1

AAGTCTACG
switch fluorescence ratio: 1.04 ± 0.03

AAGTCTATGG
switch fluorescence ratio: 1 ± 0.054

AAGTCTTAAG
switch fluorescence ratio: 1.04 ± 0.013

AAGTGACAGC
switch fluorescence ratio: 1 ± 0.031

AAGTGAGAAA
switch fluorescence ratio: 0.983 ± 0.066

AAGTGAGTGC
switch fluorescence ratio: 1 ± 0.059

AAGTGCCTGC
switch fluorescence ratio: 1.015 ± 0.0056

AAGTGCTGGG
switch fluorescence ratio: 0.993 ± 0.034

AAGTGGATAT
switch fluorescence ratio: 0.999 ± 0.024

AAGTGGCTGG
switch fluorescence ratio: 0.991 ± 0.038

AAGTGGTCTG
switch fluorescence ratio: 0.983 ± 0.017

AAGTGGTTGG
switch fluorescence ratio: 0.984 ± 0.024

AAGTTAAAGG
switch fluorescence ratio: 1.03 ± 0.077

AAGTTAATCT
switch fluorescence ratio: 0.988 ± 0.019

AAGTTACGTT
switch fluorescence ratio: 1.04 ± 0.081

AAGTTACTAG
switch fluorescence ratio: 1.07 ± 0.014

AAGTTACTGT
switch fluorescence ratio: 1.126 ± 0.006

AAGTTAGACC
switch fluorescence ratio: 1.026 ± 0.0041

AAGTTATGAG
switch fluorescence ratio: 1.01 ± 0.046

AAGTTATGTT
switch fluorescence ratio: 1.02 ± 0.028

AAGTTATTTT
switch fluorescence ratio: 1.01 ± 0.015

AAGTTCATGG
switch fluorescence ratio: 0.973 ± 0.012

AAGTTCCTTC
switch fluorescence ratio: 1.05 ± 0.036

AAGTTCTTTA
switch fluorescence ratio: 1.02 ± 0.022

AAGTTGAGTA
switch fluorescence ratio: 0.986 ± 0.025

AAGTTGAGTT
switch fluorescence ratio: 1.007 ± 0.0017

AAGTTGGGAA
switch fluorescence ratio: 1.02 ± 0.042

AAGTTGGGAT
switch fluorescence ratio: 0.972 ± 0.037

AAGTTGGGCC
switch fluorescence ratio: 0.955 ± 0.044

AAGTTGTACG
switch fluorescence ratio: 0.9989 ± 0.0032

AAGTTGTTCT
switch fluorescence ratio: 0.997 ± 0.014

AAGTTTAGAA
switch fluorescence ratio: 1 ± 0.012

AAGTTTAGTG
switch fluorescence ratio: 0.976 ± 0.019

AAGTTTATTC
switch fluorescence ratio: 0.967 ± 0.017

AAGTTTGAAG
switch fluorescence ratio: 0.974 ± 0.01

AAGTTTGCAT
switch fluorescence ratio: 0.978 ± 0.021

AAGTTTGTT
switch fluorescence ratio: 0.983 ± 0.027

AAGTTTTAGG
switch fluorescence ratio: 0.988 ± 0.027

AAGTTTTGAC
switch fluorescence ratio: 1 ± 0.014

AAGTTTTGGA
switch fluorescence ratio: 1.02 ± 0.025

AAGTTTTGTG
switch fluorescence ratio: 0.9869 ± 0.0074

AAGTTTTTAT
switch fluorescence ratio: 0.971 ± 0.019

AAGTTTTTTA
switch fluorescence ratio: 0.993 ± 0.023

AAGTTTTTTG
switch fluorescence ratio: 0.989 ± 0.013

AATAAAAAAC
switch fluorescence ratio: 1.05 ± 0.078

AATAAAAGAG
switch fluorescence ratio: 0.962 ± 0.018

AATAAATGCT
switch fluorescence ratio: 0.99 ± 0.036

AATAAATTTA
switch fluorescence ratio: 1 ± 0.016

AATAACGAAG
switch fluorescence ratio: 1.04 ± 0.045

AATAAGAATA
switch fluorescence ratio: 1 ± 0.037

AATAAGAGAC
switch fluorescence ratio: 1.01 ± 0.043

AATAAGGCCG
switch fluorescence ratio: 0.996 ± 0.076

AATAAGGGTG
switch fluorescence ratio: 1.09 ± 0.14

AATAAGTGTT
switch fluorescence ratio: 0.9792 ± 0.008

AATAATAGGC
switch fluorescence ratio: 0.97 ± 0.012

AATAATCAGT
switch fluorescence ratio: 1.05 ± 0.033

AATAATTTAA
switch fluorescence ratio: 0.995 ± 0.021

AATACAATGG
switch fluorescence ratio: 1.04 ± 0.011

AATACAGAGA
switch fluorescence ratio: 1.01 ± 0.055

AATACATCGG
switch fluorescence ratio: 0.999 ± 0.022

AATACATGTA
switch fluorescence ratio: 0.984 ± 0.013

AATACGGGAG
switch fluorescence ratio: 0.995 ± 0.017

AATACGGGGA
switch fluorescence ratio: 1.02 ± 0.024

AATACGGGGT
switch fluorescence ratio: 1.03 ± 0.033

AATACGTAGT
switch fluorescence ratio: 1.04 ± 0.078

AATACGTTAG
switch fluorescence ratio: 1.01 ± 0.027

AATAGACCTT
switch fluorescence ratio: 1.13 ± 0.17

AATAGACTT
switch fluorescence ratio: 0.999 ± 0.013

AATAGAGGTT
switch fluorescence ratio: 0.965 ± 0.02

AATAGCAACT
switch fluorescence ratio: 1.06 ± 0.029

AATAGCCGGG
switch fluorescence ratio: 0.97 ± 0.066

AATAGGGGCA
switch fluorescence ratio: 0.949 ± 0.017

AATAGGGGGA
switch fluorescence ratio: 1.01 ± 0.034

AATAGGGGGG
switch fluorescence ratio: 1.01 ± 0.024

AATAGGGTGT
switch fluorescence ratio: 1.07 ± 0.046

AATATAGGCG
switch fluorescence ratio: 1.04 ± 0.073

AATATATCCG
switch fluorescence ratio: 1.03 ± 0.02

AATATATGT
switch fluorescence ratio: 1.02 ± 0.023

AATATCCTAT
switch fluorescence ratio: 1.01 ± 0.03

AATATCGCGG
switch fluorescence ratio: 1.0264 ± 0.001

AATATCGGCA
switch fluorescence ratio: 0.982 ± 0.027

AATATCGGGA
switch fluorescence ratio: 0.983 ± 0.038

AATATCTCTG
switch fluorescence ratio: 1.02 ± 0.03

AATATGAATT
switch fluorescence ratio: 1.01 ± 0.016

AATATGTGTA
switch fluorescence ratio: 0.987 ± 0.018

AATATTAGGT
switch fluorescence ratio: 0.995 ± 0.023

AATATTCCAT
switch fluorescence ratio: 1.02 ± 0.045

AATATTTTGG
switch fluorescence ratio: 1.013 ± 0.0037

AATCAGATCG
switch fluorescence ratio: 0.962 ± 0.018

AATCAGGACA
switch fluorescence ratio: 0.9959 ± 0.0076

AATCATATGG
switch fluorescence ratio: 0.969 ± 0.057

AATCATATTT
switch fluorescence ratio: 1.02 ± 0.018

AATCATTTTG
switch fluorescence ratio: 1 ± 0.018

AATCCGGAAC
switch fluorescence ratio: 1.92 ± 0.023

AATCCTAGTT
switch fluorescence ratio: 1.01 ± 0.011

AATCGAGGAG
switch fluorescence ratio: 0.957 ± 0.053

AATCGAGTGG
switch fluorescence ratio: 0.969 ± 0.06

AATCGGAGCA
switch fluorescence ratio: 1.349 ± 0.0071

AATCGGCCGG
switch fluorescence ratio: 1.01 ± 0.053

AATCGGCTGG
switch fluorescence ratio: 1.01 ± 0.011

AATCGGGACC
switch fluorescence ratio: 0.9905 ± 0.002

AATCGGGCAA
switch fluorescence ratio: 1.34 ± 0.03

AATCGGGGCG
switch fluorescence ratio: 0.905 ± 0.016

AATCGTTAAA
switch fluorescence ratio: 0.9812 ± 0.0069

AATCTACGCA
switch fluorescence ratio: 1.44 ± 0.32

AATCTACTGA
switch fluorescence ratio: 1.013 ± 0.01

AATCTATAAT
switch fluorescence ratio: 1.007 ± 0.0018

AATCTTCATG
switch fluorescence ratio: 0.997 ± 0.044

AATCTTCTGG
switch fluorescence ratio: 0.98 ± 0.025

AATCTTGGGA
switch fluorescence ratio: 0.977 ± 0.028

AATCTTGGGC
switch fluorescence ratio: 0.9771 ± 0.0096

AATCTTGTTG
switch fluorescence ratio: 0.998 ± 0.021

AATCTTTGCT
switch fluorescence ratio: 1.011 ± 0.0063

AATCTTTGTG
switch fluorescence ratio: 0.976 ± 0.033

AATGAAAGGT
switch fluorescence ratio: 1.01 ± 0.022

AATGAACATG
switch fluorescence ratio: 0.978 ± 0.037

AATGAAGGTC
switch fluorescence ratio: 0.965 ± 0.079

AATGAAGTGT
switch fluorescence ratio: 0.996 ± 0.012

AATGAATCGT
switch fluorescence ratio: 1 ± 0.015

AATGAATTGG
switch fluorescence ratio: 0.9691 ± 0.005

AATGACTCAT
switch fluorescence ratio: 0.9808 ± 0.0049

AATGAGAGTT
switch fluorescence ratio: 0.9909 ± 0.0011

AATGAGGGGG
switch fluorescence ratio: 0.978 ± 0.05

AATGAGTCAA
switch fluorescence ratio: 1 ± 0.021

AATGAGTGTG
switch fluorescence ratio: 0.9805 ± 0.0029

AATGATAGTA
switch fluorescence ratio: 1.006 ± 0.0034

AATGATATCA
switch fluorescence ratio: 1.01 ± 0.025

AATGATCGAC
switch fluorescence ratio: 0.975 ± 0.012

AATGATGCCT
switch fluorescence ratio: 0.995 ± 0.036

AATGATGTAC
switch fluorescence ratio: 1.05 ± 0.01

AATGCACTCG
switch fluorescence ratio: 1.04 ± 0.05

AATGCAGATT
switch fluorescence ratio: 1.031 ± 0.008

AATGCCAAGG
switch fluorescence ratio: 1 ± 0.03

AATGCGCCAG
switch fluorescence ratio: 1.03 ± 0.025

AATGCTGACA
switch fluorescence ratio: 1 ± 0.016

AATGCTGGTG
switch fluorescence ratio: 1.075 ± 0.01

AATGCTGGTT
switch fluorescence ratio: 1.01 ± 0.015

AATGGACGTG
switch fluorescence ratio: 1 ± 0.028

AATGGAGATG
switch fluorescence ratio: 1 ± 0.041

AATGGAGTGG
switch fluorescence ratio: 0.997 ± 0.028

AATGGCAATG
switch fluorescence ratio: 1.05 ± 0.026

AATGGCAATT
switch fluorescence ratio: 0.995 ± 0.033

AATGGCAGGG
switch fluorescence ratio: 0.988 ± 0.039
